Experimental data from paper PMC4364632, “Engineering a fungal peroxidase that degrades lignin at very acidic pH” (Biotechnology for Biofuels, 2014).
Residue numbers refer to the chain shown, from its start. Numbers in names are those of the source.

Assays:
VP1 [1] = system: T1, VP1; experiment: dimeric coerulignone formation at […] nm, steady-state kinetics; assay type: biochemical, Pleurotus ostreatus; details: 0.1 mM H2O2, 0.1 M tartrate pH 3.5, 25°C; biphasic, high-efficiency site (catalytic Trp)
T1 construct: mature protein, signal peptide removed, untagged in pET23a

VP1 [2] = system: T1, VP1; experiment: ABTS cation radical formation at […] nm, steady-state kinetics; assay type: biochemical, Pleurotus ostreatus; details: 0.1 mM H2O2, 0.1 M tartrate pH 3.5, 25°C; biphasic, high-efficiency site (catalytic Trp)
VP1 [3] = system: T1, VP1; experiment: veratraldehyde formation at […] nm, steady-state kinetics; assay type: biochemical, Pleurotus ostreatus; details: 0.1 mM H2O2, 0.1 M tartrate pH 3.0, 25°C
VP1 [4] = system: T1, VP1; experiment: RB5 disappearance at […] nm, steady-state kinetics; assay type: biochemical, Pleurotus ostreatus; details: 0.1 mM H2O2, 0.1 M tartrate pH 3.5, 25°C
purified protein [5] = substrate: CCn1c(=NN=c2sc3cc(S(=O)(=O)O)ccc3n2CC)sc2cc(S(=O)(=O)O)ccc21; experiment: purified protein; assay type: biochemical, Gelatoporia subvermispora; details: 0.1 mM H2O2, 0.1 M tartrate pH 3.5, 25°C
purified protein [6] = substrate: COc1ccc(CO)cc1OC; experiment: purified protein; assay type: biochemical, Gelatoporia subvermispora; details: 0.1 mM H2O2, 0.1 M tartrate pH 3.0, 25°C
purified protein [7] = substrate: COc1ccccc1OC(CO)C(O)c1cc(OC)c(OC)c(OC)c1; experiment: purified protein; assay type: biochemical, Gelatoporia subvermispora; details: 0.1 mM H2O2, 100 mM BR buffer pH 3.0, 25°C, unit doubtful: printed kcat/Km (s^-1.mM^-1) implies mM
purified protein [8] = substrate: Nc1c(N=Nc2ccc(S(=O)(=O)CCOS(=O)(=O)O)cc2)c(S(=O)(=O)O)cc2cc(S(=O)(=O)O)c(N=Nc3ccc(S(=O)(=O)CCOS(=O)(=O)O)cc3)c(O)c12; experiment: purified protein; assay type: biochemical, Gelatoporia subvermispora; details: 0.1 mM H2O2, 0.1 M tartrate pH 3.5, 25°C
purified protein [9] = substrate: CCn1c(=NN=c2sc3cc(S(=O)(=O)O)ccc3n2CC)sc2cc(S(=O)(=O)O)ccc21; experiment: purified protein; assay type: biochemical, Phanerodontia chrysosporium; details: 0.1 mM H2O2, 0.1 M tartrate pH 3.5, 25°C
purified protein [10] = substrate: COc1ccc(CO)cc1OC; experiment: purified protein; assay type: biochemical, Phanerodontia chrysosporium; details: 0.1 mM H2O2, 0.1 M tartrate pH 3.0, 25°C
purified protein [11] = substrate: COc1cccc(OC)c1O; experiment: purified protein; assay type: biochemical, Phanerodontia chrysosporium; details: 0.1 mM H2O2, 0.1 M tartrate pH 3.5, 25°C

## COc1cccc(OC)c1O [2,6-dimethoxyphenol]
VP1 [1]
  Km: 54 ± 4 µM

## CCn1c(=NN=c2sc3cc(S(=O)(=O)O)ccc3n2CC)sc2cc(S(=O)(=O)O)ccc21 [2,2'-azino-bis(3-ethylbenzothiazoline-6-sulfonate)]
VP1 [2]
  Km: 4 ± 0.4 µM

## COc1ccc(CO)cc1OC [veratryl alcohol]
VP1 [3]
  Km: 5500 ± 46 µM

## Nc1c(N=Nc2ccc(S(=O)(=O)CCOS(=O)(=O)O)cc2)c(S(=O)(=O)O)cc2cc(S(=O)(=O)O)c(N=Nc3ccc(S(=O)(=O)CCOS(=O)(=O)O)cc3)c(O)c12 [Reactive Black 5]
VP1 [4]
  Km: 5.4 ± 0.2 µM

B1: MnP6 (Gelatoporia subvermispora B; S171W/S189W) (protein)
chain: APTAVCSDGTRVSNAVCCDFVSLGQDLQSMVLQGDCGEDAHEIIRLTFHDAVAISRKLGPSAGGGADGSMLLFPLVEPEFAASNGIDDSVNNLIPFLSLHPTISAGDLVQFAGAVALSNCPGAPRVQFLAGRPNHTIAAIDGLIPEPQDNVTWILERFDDAGGFTPFEVVWLLASHTIARADKVDPTLDAAPFDTTPFTFDSQIFLEVLLKGVGFPGLDNNTGEVSSPLPLGDTSTGGKDTGLMRLQSDFALAHDPRTACFWQGFVDQQEFMSQSFASAFAKLAVLGHNTDDLIDCSEVVPVPKPAVDKPTTFPATTGPQDLELSCLAERFPTLSVDPGAQETLIPHCSDGLENCTSVQFSGPATDSP
notes: mature protein, signal peptide removed, untagged in pET23a; S168W and S168W-environment variants
Purified protein [5]
  Km: 60.2 ± 13.4 µM
  kcat: 1.4 ± 0.1 s⁻¹
  kcat/Km: 23000 ± 3000 M⁻¹ s⁻¹
Purified protein [6]
  Km: 2740 ± 560 µM
  kcat: 0.54 ± 0.04 s⁻¹
  kcat/Km: 197 M⁻¹ s⁻¹
Purified protein [7]
  Km: 0.0049 ± 0.0013 mM
Purified protein [8]
  Km: 12.6 ± 3 µM
  kcat: 7.8 ± 1.1 s⁻¹
  kcat/Km: 619000 ± 27000 M⁻¹ s⁻¹

B2: MnP6 (Gelatoporia subvermispora B; F279E/F283M/F289K/Q292N/S171W/S189W/S293R/S296G/T183S) (protein)
chain: B1 chain with T165S, F261E, F265M, F271K, Q274N, S275R, S278G
notes: as for B1
Purified protein [6]
  Km: 21600 ± 200 µM
  kcat: 1.69 ± 0.04 s⁻¹
  kcat/Km: 78 M⁻¹ s⁻¹
Purified protein [8]
  Km: 5.4 ± 3 µM
  kcat: 7 ± 1.1 s⁻¹
  kcat/Km: 1.31e+06 ± 100000 M⁻¹ s⁻¹

B3: LiP-H8 (Phanerodontia chrysosporium) (protein)
chain: ATCSNGKTVGDASCCAWFDVLDDIQQNLFHGGQCGAEAHESIRLVFHDSIAISPAMEAQGKFGGGGADGSIMIFDDIETAFHPNIGLDEIVKLQKPFVQKHGVTPGDFIAFAGRVALSNCPGAPQMNFFTGRAPATQPAPDGLVPEPFHTVDQIINRVNDAGEFDELELVWMLSAHSVAAVNDVDPTVQGLPFDSTPGIFDSQFFVETQLRGTAFPGSGGNQGEVESPLPGEIRIQSDHTIARDSRTACEWQSFVNNQSKLVDDFQFIFLALTQLGQDPNAMTDCSDVIPQSKPIPGNLPFSFFPAGKTIKDVEQACAETPFPTLTTLPGPETSVQRIPPPPGA
Purified protein [9]
  Km: 23.0 ± 1.6 µM
  kcat: 13 ± 0.2 s⁻¹
  kcat/Km: 563000 ± 36000 M⁻¹ s⁻¹
Purified protein [10]
  Km: 190 ± 17 µM
  kcat: 17.5 ± 0.5 s⁻¹
  kcat/Km: 92000 ± 6000 M⁻¹ s⁻¹
Purified protein [11]
  Km: 5.8 ± 0.5 µM
  kcat: 10 ± 0.1 s⁻¹
  kcat/Km: 1.72e+06 ± 153000 M⁻¹ s⁻¹
